These results are taken from patent CN113004416A (HEFEI HANKEMAB BIOTECHNOLOGY CO LTD, dated 2021).

Assay [1] has as its target 人4-1BB抗原 (recombinant, purified from 293 cell supernatant by Protein A) (human). Briefly: ELISA on coated 4-1BB antigen.
In assay [2] the target is 细胞表面4-1BB抗原 (human 4-1BB on CHO-K1-Hu4-1BB stable cells; CD137 on lymphocytes) (human). Description: flow cytometry on CHO-K1-Hu4-1BB cells. (Flow cytometry measures light scatter and fluorescence of single cells or particles in a stream.)
Chain of 细胞表面4-1BB抗原 (human 4-1BB on CHO-K1-Hu4-1BB stable cells; CD137 on lymphocytes) (human) (chain, as listed by the source): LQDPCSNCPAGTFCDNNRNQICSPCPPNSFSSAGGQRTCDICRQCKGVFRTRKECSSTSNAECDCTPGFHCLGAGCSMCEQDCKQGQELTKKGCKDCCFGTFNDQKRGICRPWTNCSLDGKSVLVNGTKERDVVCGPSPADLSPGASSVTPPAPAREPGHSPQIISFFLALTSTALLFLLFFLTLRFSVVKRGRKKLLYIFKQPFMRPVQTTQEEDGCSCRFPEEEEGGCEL
In assay [3] the target is T1, HER2抗原 (human HER2/ErbB2 in lysate of T6-17 cells, coated on ELISA plate) (human, UniProt P04626 23-1255).
T1 construct: The antigen is a crude detergent lysate of cells with high membrane expression of human HER2, not a purified protein
Briefly: ELISA on coated T6-17 cell lysate. On the technique in general: In an ELISA, binding on a coated surface is turned into a signal by an enzyme label.

In assay [4] the target is T2, 细胞表面HER2抗原 (HER2 on SKOV3, N87, MCF-7/HER2, MCF-7, JIMT-1, AC16 cells) (human, UniProt P04626 23-1255).
T2 construct: whole, on cells
Description: flow cytometry on JIMT-1 cells.

The target in assay [5] is T2, 细胞表面HER2抗原 (HER2 on SKOV3, N87, …). Briefly: flow cytometry on MCF-7/HER2 cells.
The target is the same in assay [6]. Briefly: flow cytometry on N87 cells.
Assay [7] shares this target. Briefly: flow cytometry on SKOV3 cells.
Assay [8] has the same target. Description: flow cytometry on AC16 cells.

Chain of 人4-1BB抗原 (recombinant, purified from 293 cell supernatant by Protein A) (human) (chain, as listed by the source): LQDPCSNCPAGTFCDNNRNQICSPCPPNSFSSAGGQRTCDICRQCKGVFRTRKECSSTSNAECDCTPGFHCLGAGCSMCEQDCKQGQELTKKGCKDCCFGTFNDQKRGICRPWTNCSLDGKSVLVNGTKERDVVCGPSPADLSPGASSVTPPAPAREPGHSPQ

B1: 抗人4-1BB单克隆抗体 HuB6 (antibody, V domains shown)
VH: QVQLQESGPGLVKPSETLSITCTVSGSSLTSYGVHWVRQPPGKGLEGLGVIWPGGSTNYNSALMSRLTISKDNSKSQVSLKMSSLTAADTAMYYCARVTGTWYFDVWGQGTTVTVSS
VL: DIQMTQSPSSLSASLGDRVTISCSASQGISNYLNWYQQKPDGTVKLLIYYTSTLHSGVPSRFSGSGSGTDFTLTISSLQPEDVATYYCQQYSKLPWTFGGGTKLEIK
notes: Monoclonal antibody; also called Hanke10F4 (专利申请201911105611.1)
As to B1, the 50% effective concentration (EC50) (as a rule, the concentration needed to bring the measured effect to its halfway point) amounted to 0.00634 µg/mL in assay [1] and 2.49 µg/mL in assay [2].

B2: 抗人HER2单克隆抗体 Trastuzumab (Herceptin) (antibody, V domains shown)
VH: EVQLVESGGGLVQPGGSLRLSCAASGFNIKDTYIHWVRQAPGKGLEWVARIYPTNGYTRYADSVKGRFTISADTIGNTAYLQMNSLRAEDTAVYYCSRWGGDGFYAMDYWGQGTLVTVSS
VL: DIQMTQSPSSLSASVGDRVTITCRASQDVNTAVAWYQQKPGKAPKLLIYSASFLYSGVPSRFSGSRSGTDFTLTISSLQPEDFATYYCQQHYTTPPTFGGGTKLTVLG
notes: IgG1, kappa; also called 曲妥珠单抗
With B2, the half-maximal effective concentration (EC50) came to 0.104 µg/mL in assay [3]; 1.1 µg/mL in assay [4]; 1.39 µg/mL in assay [5]; 2 µg/mL in assay [6]; 1.23 µg/mL in assay [7]; 0.851 µg/mL in assay [8].
